# Data as given in the supplement of paper PMC10201428.
# ± gives the standard deviation of the averaged measurements.
# How the values were obtained:
# [1] = test system: VchCAST RNA-guided transposition machinery (E. coli BL21(DE3) host, lacZ target); test: relative integration efficiency (T-RL orientation) vs wild-type transposon end (log2 (normalized fold change)); transposon end mutated: right end (5 bp flank + 75 bp right end); higher = more efficient transposition
# Outline: (§1)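 Barcode abundances in input plasmids and in genomic integration junctions were obtained by PCR amplification and Illumina sequencing. These came from E. coli BL21(DE3) co-transformed with a T7-driven effector plasmid and a pUC57 donor carrying 1549 left-end or 1849 right-end transposon variants, then plated with 0.1 mM IPTG at 37°C for 18 h. Relative integration efficiency is the output/input fold change, normalised to reference barcodes and log-transformed.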
# [2] = test system: VchCAST RNA-guided transposition machinery (E. coli BL21(DE3) host, lacZ target); test: relative integration efficiency (T-LR orientation) vs wild-type transposon end (log2 (normalized fold change)); transposon end mutated: right end (5 bp flank + 75 bp right end); higher = more efficient transposition
# Outline: as §1
Sequence,relative integration efficiency (log2) [1],relative integration efficiency (log2) [2]
ACATTTGTTGATACAACCATAAAATGATAATTACTCTGATCATAGTCAGACCACACCCATAAATTGATAATTATCACACCCATAAATTGATATTGCACATTGCTACGACCCGTATTCGCACCGACAC,-4.6 ± 0.057,-2.36 ± 0.32
ACATTTGTTGATACAACCATAAAATCATAATTACCCCCATAAATTGATAATTATCACACCCAATTTAACTATAACGCTCTGATCATAGTCAGACCAACATTGCTACGACCCGTATTCGCACCGACAC,-3.09 ± 0.33,0.699 ± 0.11
ACAGGTGTTGATACAACCATAAAATGATAATTACACCCATAAATTGATAATTATCACACCCATAAATTGATATTGCCTCTGATCATAGTCAGACCAACATTGCTACGACCCGTATTCGCACCGACAC,-0.284 ± 0.012,-0.1 ± 0.25
ACATTTGTTGATACAACCATAAAATCATAATTACCCCCATAAATTGATAATTATCACACCCCATTTAACTATAACGCTCTGATCATAGTCAGACCAACATTGCTACGACCCGTATTCGCACCGACAC,-3.3 ± 0.19,0.532 ± 0.1
ACATTTGTTGATACAACCATAAAATCATAATTACCCCCATCAATTGATAATTATCCCACCCAATTTAACTATAACGCTCTGATCATAGTCAGACCAACATTGCTACGACCCGTATTCGCACCGACAC,-5.51 ± 0.13,-1.33 ± 0.49
ACATTTGTTCATACAACCCTAAAATGATAATTACACCCATAAATGGATCATTATCACCCCCAATTTAACTATAACGCTCTGATCATAGTCAGACCAACATTGCTACGACCCGTATTCGCACCGACAC,-4.59 ± 0.14,-3.98 ± 0.81
ACATTTGTTGATACAACCATAAAATGATAATTACTCTGATCATAGTCAGACCAACATTGCTACGACCCGTATTCACCCATAAATTGATAATTATCAGTGGGTATTTAACTATAACGCGCACCGACAC,-2.15 ± 0.4,1.08 ± 0.33
ACATTTGTTGATACACCCATAAATTGATAATTACAACCATATATTGATATCTCTCACAACCATAAAGTGATATTTACTCTGATCATAGTCAGACCAACATTGCTACGACCCGTATTCGCACCGACAC,-0.664 ± 0.34,0.11 ± 0.14
ACATTTGTTGATACAACCATAAAATGATAATTACACCCATAAATTGATAATTATCACACCCATAAATTGATATTGCCTCCAACCATAAAATGATAATTATGATCATAGTCAGACCAAGCACCGACAC,-0.0389 ± 0.26,-0.77 ± 0.082
ACATTTGTTGATACAACCATAAAATGATAATTACAACCATAAGTTGATATTTTTCACAACCATAAGTTGATATTTTCTCTGATCATAGTCAGACCAACATTGCTACGACCCGTATTCGCACCGACAC,0.0355 ± 0.25,-0.201 ± 0.37
ACATTTGTTGATACAACCATATAATGATAATAACACCGATAAAATGATAATTATCACACCCAATTTAACTATAACGCTCTGATCATAGTCAGACCAACATTGCTACGACCCGTATTCGCACCGACAC,-1.46 ± 0.28,1.74 ± 0.093
ACATTTGTGGATACAACCATAAAATGATAATTACCACCCCTAAATTGATAATTATCACACCCATTTAACTATAACGCTCTGATCATAGTCAGACCAACATTGCTACGACCCGTATTCGCACCGACAC,-2.781 ± 0.006,-0.51 ± 0.037
ACATTTGTTGATACAACCATAAGTTGATATTTTCAACCATAAAATGATAATTATCAGTGGGTATTTAACTATAACGCTCTGATCATAGTCAGACCAACATTGCTACGACCCGTATTCGCACCGACAC,-0.962 ± 0.12,2.48 ± 0.2
ACATTTGTTGATACAACCATAAAATGATAATTAATAATTATTTATAATCAGCAACTTCACCCATAAATTGATAATTATCAACAAACGCCCGGTCGCGGTACTCTGATCATAGTCAGACCAACATTGC,-2.15 ± 0.52,0.707 ± 0.87
ACATTTGTTGATACAACCATAAAATGATAATTACACCCATAAATTGATATTGCTCAGTGGGTATTTAACTATAACGCTCTGATCATAGTCAGACCAACATTGCTACGACCCGTATTCGCACCGACAC,-0.891 ± 0.23,2.58 ± 0.34
ACATTTCTCGATACAACCATAAAATGATAATTACACCCATAAATGGATCATTATCACACCCAATTTAACTATAACGCTCTGATCATAGTCAGACCAACATTGCTACGACCCGTATTCGCACCGACAC,-2.3 ± 0.27,0.0432 ± 0.045
ACATTTGTTGATACAACCATAAAATGATAATTACAAAACTAAATTGATAATTATCACACCCATAAATTGATATTGCCTCTGATCATAGTCAGACCAACATTGCTACGACCCGTATTCGCACCGACAC,-2.29 ± 0.15,-2.92 ± 0.79
ACATTTGTTGATACAACCATAAAATGATAATTAATAATTATTTATAATCAGCCACCCATAAATTGATAATTATCAACAAACGCCCGGTCGCGGTACTCTGATCATAGTCAGACCAACATTGCTACGA,-1.83 ± 0.4,1.16 ± 0.037

Sequence,relative integration efficiency (log2) [1],relative integration efficiency (log2) [2]
ACATTTGTTGATACAACCATTAAATGATAATTCCACCCAAAAATTGATAATTATCACACCCAATTTAACTATAACGCTCTGATCATAGTCAGACCAACATTGCTACGACCCGTATTCGCACCGACAC,-0.813 ± 0.13,2.42 ± 0.24
ACATTTGTTGATACAACCATAAAATGATAATTAATAATTATTTATAATCAGCAACTTCACCCATAAATTGATAATTATCACACCCATAAATTGATATTGCCTCTGATCATAGTCAGACCAACATTGC,-3.33 ± 0.32,-1.32 ± 0.21
ACATTTCTTCATACAACCATAAAATGATAATTACACCCATAAATGGATCATTATCACACCCAATTTAACTATAACGCTCTGATCATAGTCAGACCAACATTGCTACGACCCGTATTCGCACCGACAC,-4.65 ± 0.36,-3.69 ± 0.99
ACATTTGTTCATACAACCATAAAACGATAATTACACCCATAAATGGATAATTATCACACCCAATTTAACTATAACGCTCTGATCATAGTCAGACCAACATTGCTACGACCCGTATTCGCACCGACAC,-2.14 ± 0.3,-0.438 ± 0.41
ACATTTGTTGATACAACCATAAAATGATAATTACACCCATAAATTGATATTGCTCACAACCATAAGTTGATATTTTCTCTGATCATAGTCAGACCAACATTGCTACGACCCGTATTCGCACCGACAC,-0.473 ± 0.17,0.538 ± 0.11
ACATTTGTCGATACAACCATAAAATGATAATTACACCCATAAATTGATCATTATCACCCCCAATTTAACTATAACGCTCTGATCATAGTCAGACCAACATTGCTACGACCCGTATTCGCACCGACAC,-1.31 ± 0.19,2.13 ± 0.24
ACATTTGCTGATACTACCATATAATGATAATAACACCCCTAAAATGATAATTATCACACCCAATTTAACTATAACGCTCTGATCATAGTCAGACCAACATTGCTACGACCCGTATTCGCACCGACAC,-4.12 ± 0.62,-2.64 ± 0.76
ACATTTGTTGATACCACCATCAAATGATAATTACACCCATACATTGATAATTATCACACCCAATTTAACTATAACGCTCTGATCATAGTCAGACCAACATTGCTACGACCCGTATTCGCACCGACAC,-3.87 ± 0.1,-0.805 ± 0.15
ACATTTGTTCATCCAACCATAAAATGATAATTACACCCATAAATGGATCATTATCACACCCAATTTAACTATAACGCTCTGATCATAGTCAGACCAACATTGCTACGACCCGTATTCGCACCGACAC,-2.36 ± 0.26,-1.01 ± 0.52
ACATTTGTTGATACAACCATATATTGATATCTCCAACCATAAAATGATAATTATCACACCCATAAATTGATAATTACTCTGATCATAGTCAGACCAACATTGCTACGACCCGTATTCGCACCGACAC,-0.0947 ± 0.0052,-0.0737 ± 0.099
ACATTTGTTGATACACCCATAAATTGATATTGCCACCCATAAATTGATATTGCTCACACCCATAAATTGATATTGCCTCTGATCATAGTCAGACCAACATTGCTACGACCCGTATTCGCACCGACAC,-0.939 ± 0.095,0.0807 ± 0.15
ACATTTGTTGATACAACCATAAAATGATAATTAATAATTATTTATAATCAGCAACTTAACACCCATAAATTGATAATTATCAACAAACGCCCGGTCGCGGTACTCTGATCATAGTCAGACCAACATT,-3.404 ± 0.015,-0.0617 ± 0.066
ACATTTGTTGATACACCCATAAATTGATATTGCCAACCATAAGTTGATATTTTTCACAACCATATATTGATATCTCCTCTGATCATAGTCAGACCAACATTGCTACGACCCGTATTCGCACCGACAC,-0.899 ± 0.17,0.0942 ± 0.34
ACATTTGTTGATACCACCATCAAATGGTAATTACACCCCTACATTGATAATTATCACACCCAATTTAACTATAACGCTCTGATCATAGTCAGACCAACATTGCTACGACCCGTATTCGCACCGACAC,-3.15 ± 0.8,0.00776 ± 0.29
ACATTTGTTGATACAACCATAAAATGATAATTACACCCATAAATTGATAATTATCACACCCATAAATTGATATTGCCTCTGTTGGCGCCCGGCCCTCAGGCCCTGCAGTGAGTTCCAGCACCGACAC,0.121 ± 0.15,0.0708 ± 0.019
ACATTGGTTCATACAACCATAAAATGATAATTACACCCATAAATGGATAATTATCACACCCAATTTAACTATAACGCTCTGATCATAGTCAGACCAACATTGCTACGACCCGTATTCGCACCGACAC,-7.74 ± 0.3,-5.92 ± 3.5
ACATTTGTTGATACAACCATAAAATGATAATTAATAATTCACCCATAAATTGATAATTATCAACAAACGCCCGGTCGCGGTACTCTGATCATAGTCAGACCAACATTGCTACGACCCGTATTCGCAC,-1.96 ± 0.21,1.02 ± 0.13
